Results as given in patent US11965039B2, “Compstatin analogues and their medical uses” (priority 2018, dated 2024).
Positions of bridges follow the written chain, without caps; N, C: chain ends. Non-standard residues stand in square brackets, D forms with d. Sar = CNCC(=O)O

B1: Compound 33 (peptide)
peptide: Ac-EICIWQDWGEHRCTE-NH2
modifications: disulfide 3-13
SMILES: CC[C@H](C)[C@@H]1NC(=O)[C@@H](NC(=O)[C@@H](NC(=O)[C@H](CCC(=O)O)NC(C)=O)[C@@H](C)CC)CSSC[C@@H](C(=O)N[C@H](C(=O)N[C@@H](CCC(=O)O)C(N)=O)[C@@H](C)O)NC(=O)[C@H](CCCNC(=N)N)NC(=O)[C@H](Cc2c[nH]cn2)NC(=O)[C@H](CCC(=O)O)NC(=O)CNC(=O)[C@H](Cc2c[nH]c3ccccc23)NC(=O)[C@H](CC(=O)O)NC(=O)[C@H](CCC(N)=O)NC(=O)[C@H](Cc2c[nH]c3ccccc23)NC1=O
B2: Compound 22 (peptide)
peptide: Ac-ICIWQDWGEHRCE-NH2
modifications: disulfide 2-12
SMILES: CC[C@H](C)[C@H](NC(C)=O)C(=O)N[C@H]1CSSC[C@@H](C(=O)N[C@@H](CCC(=O)O)C(N)=O)NC(=O)[C@H](CCCNC(=N)N)NC(=O)[C@H](Cc2c[nH]cn2)NC(=O)[C@H](CCC(=O)O)NC(=O)CNC(=O)[C@H](Cc2c[nH]c3ccccc23)NC(=O)[C@H](CC(=O)O)NC(=O)[C@H](CCC(N)=O)NC(=O)[C@H](Cc2c[nH]c3ccccc23)NC(=O)[C@H]([C@@H](C)CC)NC1=O
B3: Compound 17 (peptide)
peptide: Ac-ICIWQDWGDHRCT-NH2
modifications: disulfide 2-12
SMILES: CC[C@H](C)[C@H](NC(C)=O)C(=O)N[C@H]1CSSC[C@@H](C(=O)N[C@H](C(N)=O)[C@@H](C)O)NC(=O)[C@H](CCCNC(=N)N)NC(=O)[C@H](Cc2c[nH]cn2)NC(=O)[C@H](CC(=O)O)NC(=O)CNC(=O)[C@H](Cc2c[nH]c3ccccc23)NC(=O)[C@H](CC(=O)O)NC(=O)[C@H](CCC(N)=O)NC(=O)[C@H](Cc2c[nH]c3ccccc23)NC(=O)[C@H]([C@@H](C)CC)NC1=O
B4: Compound 34 (peptide)
peptide: Ac-EICIWQDWGEHRCTEGE-NH2
modifications: disulfide 3-13
SMILES: CC[C@H](C)[C@@H]1NC(=O)[C@@H](NC(=O)[C@@H](NC(=O)[C@H](CCC(=O)O)NC(C)=O)[C@@H](C)CC)CSSC[C@@H](C(=O)N[C@H](C(=O)N[C@@H](CCC(=O)O)C(=O)NCC(=O)N[C@@H](CCC(=O)O)C(N)=O)[C@@H](C)O)NC(=O)[C@H](CCCNC(=N)N)NC(=O)[C@H](Cc2c[nH]cn2)NC(=O)[C@H](CCC(=O)O)NC(=O)CNC(=O)[C@H](Cc2c[nH]c3ccccc23)NC(=O)[C@H](CC(=O)O)NC(=O)[C@H](CCC(N)=O)NC(=O)[C@H](Cc2c[nH]c3ccccc23)NC1=O
B5: Compound 18 (peptide)
peptide: Ac-ICIWQDWGRHRCT-NH2
modifications: disulfide 2-12
SMILES: CC[C@H](C)[C@H](NC(C)=O)C(=O)N[C@H]1CSSC[C@@H](C(=O)N[C@H](C(N)=O)[C@@H](C)O)NC(=O)[C@H](CCCNC(=N)N)NC(=O)[C@H](Cc2c[nH]cn2)NC(=O)[C@H](CCCNC(=N)N)NC(=O)CNC(=O)[C@H](Cc2c[nH]c3ccccc23)NC(=O)[C@H](CC(=O)O)NC(=O)[C@H](CCC(N)=O)NC(=O)[C@H](Cc2c[nH]c3ccccc23)NC(=O)[C@H]([C@@H](C)CC)NC1=O
B6: Compound 32 (peptide)
peptide: Ac-SEICIWQDWGEHRCTEA-NH2
modifications: disulfide 4-14
SMILES: CC[C@H](C)[C@@H]1NC(=O)[C@@H](NC(=O)[C@@H](NC(=O)[C@H](CCC(=O)O)NC(=O)[C@H](CO)NC(C)=O)[C@@H](C)CC)CSSC[C@@H](C(=O)N[C@H](C(=O)N[C@@H](CCC(=O)O)C(=O)N[C@@H](C)C(N)=O)[C@@H](C)O)NC(=O)[C@H](CCCNC(=N)N)NC(=O)[C@H](Cc2c[nH]cn2)NC(=O)[C@H](CCC(=O)O)NC(=O)CNC(=O)[C@H](Cc2c[nH]c3ccccc23)NC(=O)[C@H](CC(=O)O)NC(=O)[C@H](CCC(N)=O)NC(=O)[C@H](Cc2c[nH]c3ccccc23)NC1=O
B7: Compound 30 (peptide)
peptide: Ac-EGEICIWQDWGEHRCT-NH2
modifications: disulfide 5-15
SMILES: CC[C@H](C)[C@@H]1NC(=O)[C@@H](NC(=O)[C@@H](NC(=O)[C@H](CCC(=O)O)NC(=O)CNC(=O)[C@H](CCC(=O)O)NC(C)=O)[C@@H](C)CC)CSSC[C@@H](C(=O)N[C@H](C(N)=O)[C@@H](C)O)NC(=O)[C@H](CCCNC(=N)N)NC(=O)[C@H](Cc2c[nH]cn2)NC(=O)[C@H](CCC(=O)O)NC(=O)CNC(=O)[C@H](Cc2c[nH]c3ccccc23)NC(=O)[C@H](CC(=O)O)NC(=O)[C@H](CCC(N)=O)NC(=O)[C@H](Cc2c[nH]c3ccccc23)NC1=O
B8: Compound 16 (peptide)
peptide: Ac-ICIWQEWGEHRCT-NH2
modifications: disulfide 2-12
SMILES: CC[C@H](C)[C@H](NC(C)=O)C(=O)N[C@H]1CSSC[C@@H](C(=O)N[C@H](C(N)=O)[C@@H](C)O)NC(=O)[C@H](CCCNC(=N)N)NC(=O)[C@H](Cc2c[nH]cn2)NC(=O)[C@H](CCC(=O)O)NC(=O)CNC(=O)[C@H](Cc2c[nH]c3ccccc23)NC(=O)[C@H](CCC(=O)O)NC(=O)[C@H](CCC(N)=O)NC(=O)[C@H](Cc2c[nH]c3ccccc23)NC(=O)[C@H]([C@@H](C)CC)NC1=O
B9: Compound 25 (peptide)
peptide: Ac-ICIWQDWGEHRCTEA-NH2
modifications: disulfide 2-12
SMILES: CC[C@H](C)[C@H](NC(C)=O)C(=O)N[C@H]1CSSC[C@@H](C(=O)N[C@H](C(=O)N[C@@H](CCC(=O)O)C(=O)N[C@@H](C)C(N)=O)[C@@H](C)O)NC(=O)[C@H](CCCNC(=N)N)NC(=O)[C@H](Cc2c[nH]cn2)NC(=O)[C@H](CCC(=O)O)NC(=O)CNC(=O)[C@H](Cc2c[nH]c3ccccc23)NC(=O)[C@H](CC(=O)O)NC(=O)[C@H](CCC(N)=O)NC(=O)[C@H](Cc2c[nH]c3ccccc23)NC(=O)[C@H]([C@@H](C)CC)NC1=O
B10: Compound 26 (peptide)
peptide: Ac-ICIWQDWGEHRCTE-NH2
modifications: disulfide 2-12
SMILES: CC[C@H](C)[C@H](NC(C)=O)C(=O)N[C@H]1CSSC[C@@H](C(=O)N[C@H](C(=O)N[C@@H](CCC(=O)O)C(N)=O)[C@@H](C)O)NC(=O)[C@H](CCCNC(=N)N)NC(=O)[C@H](Cc2c[nH]cn2)NC(=O)[C@H](CCC(=O)O)NC(=O)CNC(=O)[C@H](Cc2c[nH]c3ccccc23)NC(=O)[C@H](CC(=O)O)NC(=O)[C@H](CCC(N)=O)NC(=O)[C@H](Cc2c[nH]c3ccccc23)NC(=O)[C@H]([C@@H](C)CC)NC1=O
B11: Compound 27 (peptide)
peptide: Ac-ICIWQDWGEHRCEGE-NH2
modifications: disulfide 2-12
SMILES: CC[C@H](C)[C@H](NC(C)=O)C(=O)N[C@H]1CSSC[C@@H](C(=O)N[C@@H](CCC(=O)O)C(=O)NCC(=O)N[C@@H](CCC(=O)O)C(N)=O)NC(=O)[C@H](CCCNC(=N)N)NC(=O)[C@H](Cc2c[nH]cn2)NC(=O)[C@H](CCC(=O)O)NC(=O)CNC(=O)[C@H](Cc2c[nH]c3ccccc23)NC(=O)[C@H](CC(=O)O)NC(=O)[C@H](CCC(N)=O)NC(=O)[C@H](Cc2c[nH]c3ccccc23)NC(=O)[C@H]([C@@H](C)CC)NC1=O
B12: Compound 13 (peptide)
peptide: Ac-ICIWQDWGEHRC[Sar]-NH2
modifications: disulfide 2-12
SMILES: CC[C@H](C)[C@H](NC(C)=O)C(=O)N[C@H]1CSSC[C@@H](C(=O)N(C)CC(N)=O)NC(=O)[C@H](CCCNC(=N)N)NC(=O)[C@H](Cc2c[nH]cn2)NC(=O)[C@H](CCC(=O)O)NC(=O)CNC(=O)[C@H](Cc2c[nH]c3ccccc23)NC(=O)[C@H](CC(=O)O)NC(=O)[C@H](CCC(N)=O)NC(=O)[C@H](Cc2c[nH]c3ccccc23)NC(=O)[C@H]([C@@H](C)CC)NC1=O
B13: Compound 35 (peptide)
peptide: Ac-EGEICIWQDWGEHRCEGE-NH2
modifications: disulfide 5-15
SMILES: CC[C@H](C)[C@@H]1NC(=O)[C@@H](NC(=O)[C@@H](NC(=O)[C@H](CCC(=O)O)NC(=O)CNC(=O)[C@H](CCC(=O)O)NC(C)=O)[C@@H](C)CC)CSSC[C@@H](C(=O)N[C@@H](CCC(=O)O)C(=O)NCC(=O)N[C@@H](CCC(=O)O)C(N)=O)NC(=O)[C@H](CCCNC(=N)N)NC(=O)[C@H](Cc2c[nH]cn2)NC(=O)[C@H](CCC(=O)O)NC(=O)CNC(=O)[C@H](Cc2c[nH]c3ccccc23)NC(=O)[C@H](CC(=O)O)NC(=O)[C@H](CCC(N)=O)NC(=O)[C@H](Cc2c[nH]c3ccccc23)NC1=O
B14: Compound 31 (peptide)
peptide: Ac-ESEICIWQDWGEHRCT-NH2
modifications: disulfide 5-15
SMILES: CC[C@H](C)[C@@H]1NC(=O)[C@@H](NC(=O)[C@@H](NC(=O)[C@H](CCC(=O)O)NC(=O)[C@H](CO)NC(=O)[C@H](CCC(=O)O)NC(C)=O)[C@@H](C)CC)CSSC[C@@H](C(=O)N[C@H](C(N)=O)[C@@H](C)O)NC(=O)[C@H](CCCNC(=N)N)NC(=O)[C@H](Cc2c[nH]cn2)NC(=O)[C@H](CCC(=O)O)NC(=O)CNC(=O)[C@H](Cc2c[nH]c3ccccc23)NC(=O)[C@H](CC(=O)O)NC(=O)[C@H](CCC(N)=O)NC(=O)[C@H](Cc2c[nH]c3ccccc23)NC1=O
B15: Compound 14 (peptide)
peptide: Ac-ESSAICIWQDWGEHRCTGAES-NH2
modifications: disulfide 6-16
SMILES: CC[C@H](C)[C@H](NC(=O)[C@H](C)NC(=O)[C@H](CO)NC(=O)[C@H](CO)NC(=O)[C@H](CCC(=O)O)NC(C)=O)C(=O)N[C@H]1CSSC[C@@H](C(=O)N[C@H](C(=O)NCC(=O)N[C@@H](C)C(=O)N[C@@H](CCC(=O)O)C(=O)N[C@@H](CO)C(N)=O)[C@@H](C)O)NC(=O)[C@H](CCCNC(=N)N)NC(=O)[C@H](Cc2c[nH]cn2)NC(=O)[C@H](CCC(=O)O)NC(=O)CNC(=O)[C@H](Cc2c[nH]c3ccccc23)NC(=O)[C@H](CC(=O)O)NC(=O)[C@H](CCC(N)=O)NC(=O)[C@H](Cc2c[nH]c3ccccc23)NC(=O)[C@H]([C@@H](C)CC)NC1=O

Each binder was assayed against Human C3 (Complement tech cat #A113c) (human, UniProt P01024 23-1663) (assay: cell-based or functional assay).
Sequence of Human C3 (Complement tech cat #A113c) (P01024 23-1663 limits assumed): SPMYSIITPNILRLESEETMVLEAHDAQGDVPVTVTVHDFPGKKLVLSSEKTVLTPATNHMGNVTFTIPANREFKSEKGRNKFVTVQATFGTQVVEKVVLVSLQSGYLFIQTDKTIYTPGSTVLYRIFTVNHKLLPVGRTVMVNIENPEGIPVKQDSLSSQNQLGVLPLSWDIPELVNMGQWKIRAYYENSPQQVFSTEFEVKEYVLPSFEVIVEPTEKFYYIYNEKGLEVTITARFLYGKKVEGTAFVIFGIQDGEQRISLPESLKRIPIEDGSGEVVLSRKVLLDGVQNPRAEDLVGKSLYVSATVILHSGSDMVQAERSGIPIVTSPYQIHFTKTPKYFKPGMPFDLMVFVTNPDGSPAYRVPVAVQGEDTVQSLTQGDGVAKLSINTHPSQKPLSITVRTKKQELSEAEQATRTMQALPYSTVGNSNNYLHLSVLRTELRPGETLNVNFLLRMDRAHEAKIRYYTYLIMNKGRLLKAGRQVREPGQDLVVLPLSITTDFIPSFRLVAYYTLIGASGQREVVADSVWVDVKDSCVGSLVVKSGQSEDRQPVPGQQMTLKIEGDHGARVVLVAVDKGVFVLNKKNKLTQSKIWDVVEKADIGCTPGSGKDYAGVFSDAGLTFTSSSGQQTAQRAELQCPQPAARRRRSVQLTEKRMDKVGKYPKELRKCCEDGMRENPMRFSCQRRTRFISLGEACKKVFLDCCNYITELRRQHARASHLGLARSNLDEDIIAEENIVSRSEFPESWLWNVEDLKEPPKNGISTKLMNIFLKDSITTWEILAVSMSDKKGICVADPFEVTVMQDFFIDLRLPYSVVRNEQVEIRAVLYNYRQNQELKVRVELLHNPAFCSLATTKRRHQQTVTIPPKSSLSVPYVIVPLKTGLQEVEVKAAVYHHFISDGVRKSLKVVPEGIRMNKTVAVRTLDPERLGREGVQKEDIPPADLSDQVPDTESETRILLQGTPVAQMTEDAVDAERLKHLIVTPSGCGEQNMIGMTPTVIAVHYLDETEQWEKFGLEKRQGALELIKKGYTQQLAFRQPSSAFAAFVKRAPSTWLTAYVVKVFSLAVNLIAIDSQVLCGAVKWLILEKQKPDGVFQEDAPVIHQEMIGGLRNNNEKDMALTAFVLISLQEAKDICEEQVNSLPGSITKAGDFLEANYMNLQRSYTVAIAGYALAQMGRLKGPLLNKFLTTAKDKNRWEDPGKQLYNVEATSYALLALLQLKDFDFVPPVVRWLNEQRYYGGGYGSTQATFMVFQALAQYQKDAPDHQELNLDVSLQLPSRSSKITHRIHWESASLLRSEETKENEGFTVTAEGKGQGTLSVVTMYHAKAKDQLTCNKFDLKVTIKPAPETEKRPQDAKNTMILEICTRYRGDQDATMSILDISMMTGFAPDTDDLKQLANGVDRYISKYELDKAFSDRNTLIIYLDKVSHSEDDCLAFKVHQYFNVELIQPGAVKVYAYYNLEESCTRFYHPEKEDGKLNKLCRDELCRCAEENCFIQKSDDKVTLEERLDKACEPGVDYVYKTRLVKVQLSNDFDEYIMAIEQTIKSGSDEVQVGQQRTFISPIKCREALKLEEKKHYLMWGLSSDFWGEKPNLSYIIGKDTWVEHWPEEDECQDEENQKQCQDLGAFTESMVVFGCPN

Row | Binder | inhibition of hemolysis IC50 [nM]
1 | B1 | < 100
2 | B2 | < 100
3 | B3 | < 100
4 | B4 | < 250
5 | B5 | < 100
6 | B6 | < 100
7 | B7 | < 100
8 | B8 | < 100
9 | B9 | < 100
10 | B10 | < 100
11 | B11 | < 100
12 | B12 | < 100
13 | B13 | < 500
14 | B14 | < 100
15 | B15 | < 100
